From US20230203146A1 (Boehringer Ingelheim, published 2023)
Where a chain is given by its changes, count along the chain named. Like-named read-outs stand apart in the source and are kept apart here. Each block holds one binder with its values, some of them ahead of it.

Legend:
FLAG-tagged mouse Ang2 [1] = biological target: T1, FLAG-tagged mouse Ang2 (mouse, UniProt O35608 19-496); test: competition ELISA: FLAG-mAng2 binding to coated mTie2-Fc
T1 construct: N-terminally FLAG-tagged, conditioned medium of HEK293T cells; also called mAng2; FLAG-mAng2
T1 sequence: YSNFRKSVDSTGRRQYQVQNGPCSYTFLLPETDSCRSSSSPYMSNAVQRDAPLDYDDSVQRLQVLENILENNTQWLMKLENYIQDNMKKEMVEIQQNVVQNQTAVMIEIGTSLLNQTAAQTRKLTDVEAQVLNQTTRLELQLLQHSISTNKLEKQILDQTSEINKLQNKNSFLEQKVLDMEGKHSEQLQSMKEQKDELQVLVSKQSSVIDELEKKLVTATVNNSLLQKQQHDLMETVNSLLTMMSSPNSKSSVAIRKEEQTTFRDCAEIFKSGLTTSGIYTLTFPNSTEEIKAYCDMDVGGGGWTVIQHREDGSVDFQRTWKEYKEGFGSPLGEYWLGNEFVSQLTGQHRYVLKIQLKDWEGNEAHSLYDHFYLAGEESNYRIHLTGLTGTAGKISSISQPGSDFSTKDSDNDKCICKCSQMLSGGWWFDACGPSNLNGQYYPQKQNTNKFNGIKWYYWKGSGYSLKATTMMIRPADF
Procedure: (§1) In brief, 2 μg/mL of recombinant mouse Tie2-Fc or cyno Tie2-Fc is coated overnight at 4° C. in a 96-well MaxiSorp plate (Nunc, Wiesbaden, Germany). Coated wells are blocked with a 1% casein solution.

[2] = biological target: T2, FLAG-tagged cynomolgus Ang2 (cynomolgus, UniProt O15123 19-496 (human entry), limits assumed); test: competition ELISA: FLAG-cAng2 binding to coated cTie2-Fc
T2 construct: N-terminally FLAG-tagged, conditioned medium of HEK293T cells; also called cAng2; FLAG-cAng2
T2 chain: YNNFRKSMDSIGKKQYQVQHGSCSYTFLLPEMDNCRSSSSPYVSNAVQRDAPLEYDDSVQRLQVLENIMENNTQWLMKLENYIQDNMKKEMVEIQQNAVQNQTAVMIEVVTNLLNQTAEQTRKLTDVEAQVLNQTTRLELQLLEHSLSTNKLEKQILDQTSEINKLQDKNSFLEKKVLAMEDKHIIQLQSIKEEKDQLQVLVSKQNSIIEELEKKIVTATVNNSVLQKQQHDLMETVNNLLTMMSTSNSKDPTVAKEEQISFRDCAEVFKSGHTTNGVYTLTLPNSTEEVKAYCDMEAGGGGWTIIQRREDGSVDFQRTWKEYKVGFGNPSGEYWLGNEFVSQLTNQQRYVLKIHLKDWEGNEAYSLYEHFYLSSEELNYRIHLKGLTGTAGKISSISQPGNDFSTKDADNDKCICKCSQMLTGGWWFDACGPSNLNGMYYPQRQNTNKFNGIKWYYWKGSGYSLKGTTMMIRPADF
Procedure: as §1

recombinant rat Ang2-FLD = biological target: T3, recombinant rat Ang2-FLD (rat, UniProt O35462 275-496, limits assumed); test: SPR (Biacore T100), VHH immobilized, Ang2-FLD injected
T3 construct: domain: FLD
T3 sequence (looked up): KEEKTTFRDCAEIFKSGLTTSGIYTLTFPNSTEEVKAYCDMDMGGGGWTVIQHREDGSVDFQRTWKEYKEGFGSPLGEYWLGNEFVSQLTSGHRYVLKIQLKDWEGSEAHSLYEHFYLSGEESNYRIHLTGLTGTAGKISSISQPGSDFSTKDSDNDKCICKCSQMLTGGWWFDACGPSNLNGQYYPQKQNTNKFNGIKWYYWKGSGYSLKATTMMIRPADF

[3] = biological target: T4, recombinant cynomolgus Ang2-FLD (cynomolgus, UniProt A0A2K5VNX6 275-496); test: as above
T4 construct: domain: FLD; also called cyno Ang2-FLD
T4 sequence: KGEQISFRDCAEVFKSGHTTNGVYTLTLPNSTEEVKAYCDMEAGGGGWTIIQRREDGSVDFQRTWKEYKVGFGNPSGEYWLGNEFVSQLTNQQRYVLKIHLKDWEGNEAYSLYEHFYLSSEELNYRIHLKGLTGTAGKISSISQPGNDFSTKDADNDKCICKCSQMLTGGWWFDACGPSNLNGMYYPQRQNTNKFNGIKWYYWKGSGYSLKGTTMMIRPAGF

[4] = biological target: T5, recombinant human Ang2-FLD (human, UniProt O15123 275-496, limits assumed); test: as above
T5 construct: domain: FLD
T5 sequence (looked up): T4 sequence with G2E, V23I, L28F, V35I, A154G, G212A, G221D

[5] = biological target: T6, recombinant mouse Ang2-FLD (mouse, UniProt O35608 275-496, limits assumed); test: as above
T6 construct: domain: FLD
T6 sequence (looked up): T3 sequence (looked up) with K4Q, V35I, M43V, S91G, G92Q, S107N, E114D, S119A, T168S

[6] = biological target: T7, N-terminally FLAG-tagged cynomolgus Ang2 (HEK293T conditioned medium) (cynomolgus, UniProt O15123 19-496 (human entry), limits assumed); test: competition ELISA, FLAG-cAng2 on coated cTie2-Fc
T7 construct: may be a nucleotide entry; also called cAng2; FLAG-cAng2
T7 chain: T2 chain
Procedure: as §1

[7] = biological target: T8, FLAG-tagged recombinant human Ang1 (Alexis Biochemicals) (human, UniProt Q15389 20-498, limits assumed); test: ratio of IC50 in hAng1/hTie2 ELISA to IC50 in hAng2/hTie2 ELISA
T8 construct: Bought reagent; also called hAng1; FLAG-hAng1
T8 sequence (looked up): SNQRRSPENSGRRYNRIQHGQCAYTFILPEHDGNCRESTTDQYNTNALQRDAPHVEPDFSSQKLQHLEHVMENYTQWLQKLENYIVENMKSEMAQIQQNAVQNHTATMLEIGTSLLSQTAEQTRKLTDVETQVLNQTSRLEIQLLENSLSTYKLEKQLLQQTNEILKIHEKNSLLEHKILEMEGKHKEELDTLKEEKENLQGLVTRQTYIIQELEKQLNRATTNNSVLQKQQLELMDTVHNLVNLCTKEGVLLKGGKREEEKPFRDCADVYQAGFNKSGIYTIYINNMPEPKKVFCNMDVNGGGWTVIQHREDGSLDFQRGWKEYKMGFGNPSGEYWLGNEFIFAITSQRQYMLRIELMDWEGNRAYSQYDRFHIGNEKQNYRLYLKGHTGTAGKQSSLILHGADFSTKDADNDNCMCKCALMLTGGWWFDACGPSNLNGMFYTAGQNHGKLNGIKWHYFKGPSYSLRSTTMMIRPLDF
Procedure: In brief, 2 μg/mL of Tie2/Fc chimera (R&D Systems, Minneapolis, Minn., USA) is coated in a 96-well MaxiSorp plate (Nunc, Wiesbaden, Germany).
In brief, 2 μg/mL of recombinant human Tie2-Fc (R&D Systems, Minneapolis, Minn., USA) is coated overnight at 4° C. in a 96-well MaxiSorp plate (Nunc, Wiesbaden, Germany). Coated wells are blocked with a 1% casein solution.

[8] = biological target: T9, N-terminally FLAG-tagged mouse Ang2 (HEK293T conditioned medium) (mouse, UniProt O35608 19-496); test: competition ELISA, FLAG-mAng2 on coated mTie2-Fc
T9 construct: may be a nucleotide entry; also called mAng2; FLAG-mAng2
T9 sequence: T1 sequence
Procedure: as §1

[9] = biological target: T2, FLAG-tagged cynomolgus Ang2; test: competition ELISA: FLAG-cAng2 binding to coated cTie2-Fc
Procedure: as §1

[10] = biological target: T2, FLAG-tagged cynomolgus Ang2; test: as above
Procedure: as §1

FLAG-tagged mouse Ang2 [11] = biological target: T1, FLAG-tagged mouse Ang2; test: competition ELISA: FLAG-mAng2 binding to coated mTie2-Fc; remark: listed apart in the source
Procedure: as §1

FLAG-tagged mouse Ang2 [12] = biological target: T1, FLAG-tagged mouse Ang2; test: as above; remark: listed apart in the source
Procedure: as §1

B2: VHH 00956 (VHH, not shown: small tags and cut ends)
VHH: EVQLVESGGGLVQPGGSLRLSCAASGFTLDDYAIGWFRQAPGKEREGVSAIRSSGGSTYYADSVKGRFTISSDNSKNTVYLQMNSLRPEDTAVYYCAAVPAGRLRFGEQWYPLYEYDAWGQGTLVTVSS
Kd (recombinant rat Ang2-FLD): 13000 pM
koff (recombinant rat Ang2-FLD): 0.0052 s⁻¹
kon (recombinant rat Ang2-FLD): 420000 M⁻¹ s⁻¹
Kd [3]: 720 pM
koff [3]: 0.0013 s⁻¹
kon [3]: 1.7e+06 M⁻¹ s⁻¹
Kd [4]: 1200 pM
koff [4]: 0.0015 s⁻¹
kon [4]: 1.3e+06 M⁻¹ s⁻¹
Kd [5]: 4000 pM
koff [5]: 0.0039 s⁻¹
kon [5]: 980000 M⁻¹ s⁻¹
IC50 (FLAG-tagged mouse Ang2 [1]): 2200 pM
IC50 [2]: 830 pM

B6: VHH 37A09 (VHH)
VHH: EVQLMESGGGLVQPGGSLRLSCAASGFALDYYAIGWFRQVPGKEREGVSCISSSDGITYYVDSVKGRFTISRDNAKNTVYLQMNSLKPGDTAVYYCATDSGGYIDYDCMGLGYDYWGQGTQVTVSS
notes: also called 037A09; not shown: C-terminal c-myc tag and His6 tag
IC50 [6]: 200 pM
hAng1/hAng2 ratio [7]: > 100000
IC50 [8]: 100 pM

B7: VHH 37F02 (VHH, not shown: small tags and cut ends)
VHH: B6 VHH with M5V, V40A, G89E
notes: Parental llama VHH; also called 037F02
IC50 [9]: 150 pM
IC50 [10]: 150 pM
IC50 (FLAG-tagged mouse Ang2 [11]): 110 pM
IC50 (FLAG-tagged mouse Ang2 [12]): 110 pM

B8: VHH 37F02 (VHH)
VHH: B6 VHH with M5V, V40A, G89E
notes: also called 037F02; not shown: C-terminal c-myc tag and His6 tag
IC50 [6]: 100 pM
hAng1/hAng2 ratio [7]: > 100000
IC50 [8]: 90 pM

Other lines, results leading:

IC50 (FLAG-tagged mouse Ang2 [1]): 38 pM
IC50 [2]: 54 pM
B1: VHH 00932 (VHH, not shown: small tags and cut ends)
VHH: B2 VHH with A24V, F27I, A50S, S53D, S54N, F106Y, L113I
notes: Cycle 3 variant of 28D10 on the 00908 backbone

IC50 (FLAG-tagged mouse Ang2 [1]): 62 pM
IC50 [2]: 71 pM
B3: VHH 00933 (VHH, not shown: small tags and cut ends)
VHH: B2 VHH with F27I, S53D, S54N, F106Y, L113I
notes: as for B1

IC50 (FLAG-tagged mouse Ang2 [1]): 78 pM
IC50 [2]: 69 pM
B4: VHH 00935 (VHH, not shown: small tags and cut ends)
VHH: B2 VHH with F27I, F106Y, L113I
notes: as for B1

Kd (recombinant rat Ang2-FLD): 140 pM
koff (recombinant rat Ang2-FLD): 7.2e-05 s⁻¹
kon (recombinant rat Ang2-FLD): 510000 M⁻¹ s⁻¹
Kd [3]: 8.7 pM
koff [3]: 2.2e-05 s⁻¹
kon [3]: 2.6e+06 M⁻¹ s⁻¹
Kd [4]: 17 pM
koff [4]: 2.8e-05 s⁻¹
kon [4]: 1.6e+06 M⁻¹ s⁻¹
Kd [5]: 50 pM
koff [5]: 5.6e-05 s⁻¹
kon [5]: 1.1e+06 M⁻¹ s⁻¹
IC50 (FLAG-tagged mouse Ang2 [1]): 55 pM
IC50 [2]: 91 pM
B5: VHH 00938 (VHH, not shown: small tags and cut ends)
VHH: B2 VHH with A24V, F27I, F106Y, L113I
notes: as for B1
